US20130023004A1 (WASHINGTON UNIVERSITY, published 2013)

Assays:
plasma ADAMTS13 (human) = plasma ADAMTS13 (human) (UniProt Q76LX8); experiment: cell-based or functional assay
FRETS-rVWF71 = molecular target: T1, FRETS-rVWF71
T1 chain: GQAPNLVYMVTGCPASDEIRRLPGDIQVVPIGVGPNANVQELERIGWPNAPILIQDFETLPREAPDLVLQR

plasma ADAMTS13 = molecular target: T2, plasma ADAMTS13 (human, UniProt Q76LX8 75-1427); experiment: Michaelis-Menten kinetics of substrate cleavage by plasma ADAMTS13 (fluorescence)
T2 construct: Not purified; enzyme source was plasma (about 6 nM ADAMTS13 in PNP by a literature value); also called ADAMTS13 in PNP (pooled normal plasma)
T2 sequence (looked up): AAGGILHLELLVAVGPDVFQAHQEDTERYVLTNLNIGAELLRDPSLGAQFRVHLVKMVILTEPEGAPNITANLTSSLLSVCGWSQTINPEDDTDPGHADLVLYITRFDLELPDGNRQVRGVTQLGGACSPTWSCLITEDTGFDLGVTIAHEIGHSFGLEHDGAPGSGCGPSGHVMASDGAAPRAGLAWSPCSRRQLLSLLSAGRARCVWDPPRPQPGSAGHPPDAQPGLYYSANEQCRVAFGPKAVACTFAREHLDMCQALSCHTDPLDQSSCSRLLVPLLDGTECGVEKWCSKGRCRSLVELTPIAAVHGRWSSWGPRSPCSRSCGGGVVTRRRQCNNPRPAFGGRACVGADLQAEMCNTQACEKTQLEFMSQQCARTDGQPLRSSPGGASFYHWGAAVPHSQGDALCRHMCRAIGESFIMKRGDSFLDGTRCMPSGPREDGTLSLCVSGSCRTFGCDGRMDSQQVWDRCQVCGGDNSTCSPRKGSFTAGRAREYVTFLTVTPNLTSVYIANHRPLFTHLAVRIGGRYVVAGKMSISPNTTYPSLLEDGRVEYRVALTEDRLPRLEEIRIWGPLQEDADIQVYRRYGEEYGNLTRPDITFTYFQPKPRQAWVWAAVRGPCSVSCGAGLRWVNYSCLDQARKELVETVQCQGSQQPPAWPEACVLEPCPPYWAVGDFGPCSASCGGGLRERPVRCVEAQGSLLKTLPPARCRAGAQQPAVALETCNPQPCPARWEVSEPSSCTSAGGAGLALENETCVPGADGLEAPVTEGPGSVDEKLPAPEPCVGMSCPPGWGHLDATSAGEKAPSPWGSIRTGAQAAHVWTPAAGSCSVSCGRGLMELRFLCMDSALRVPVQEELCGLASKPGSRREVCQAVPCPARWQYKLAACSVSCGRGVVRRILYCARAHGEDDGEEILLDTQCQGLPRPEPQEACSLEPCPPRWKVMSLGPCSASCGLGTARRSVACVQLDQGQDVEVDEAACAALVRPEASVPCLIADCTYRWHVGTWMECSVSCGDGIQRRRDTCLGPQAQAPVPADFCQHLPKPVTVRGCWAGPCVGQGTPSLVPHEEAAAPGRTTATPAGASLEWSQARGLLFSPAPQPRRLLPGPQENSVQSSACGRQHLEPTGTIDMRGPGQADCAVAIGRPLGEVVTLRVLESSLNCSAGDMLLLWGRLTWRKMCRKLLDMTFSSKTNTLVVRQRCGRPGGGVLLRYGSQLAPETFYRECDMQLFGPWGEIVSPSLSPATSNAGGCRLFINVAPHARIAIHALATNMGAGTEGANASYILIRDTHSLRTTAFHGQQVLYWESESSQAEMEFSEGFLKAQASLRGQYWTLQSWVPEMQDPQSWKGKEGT
Procedure: In these experiments, FRETS-rVWF71 cleavage by plasma ADAMTS13 (50 μL) was assessed in 200 μL reactions containing 50 mM HEPES, pH 7.4, 10 mM CaCl₂, 150 mM NaCl, and 0.05% Tween-20, and varying concentrations of FRETS-rVWF71. The concentration of ADAMTS13 in PNP is ˜1.03 μg/ml (Feys, H. B., et al. J. Thromb. Haemost 4:955-62, 2006), or ˜6 nM for a molecular mass of 170 kDa. For each concentration of substrate, the relationship between product fluorescence and concentration was determined directly by cleaving FRETS-rVWF71 to completion with excess recombinant ADAMTS13 MDTCS (Feys, H. B., et al. J. Thromb. Haemost. 7:2088-95, 2009) and measuring the fluorescence. Control assays contained plasma that was completely deficient in ADAMTS13. The initial velocities (nM/min) as a function of substrate concentration were fitted to the Michealis-Menten equation by nonlinear regression analysis (Prism, GraphPad).

## Hemoglobin (from UniProt P69905 2-142; P68871 2-147)
Plasma ADAMTS13 (human)
  IC50 of inhibition of ADAMTS13 activity (FRETS-rVWF71 cleavage): 10 to 15 mg/mL

B1: plasma ADAMTS13 (protein)
chain: AAGGILHLELLVAVGPDVFQAHQEDTERYVLTNLNIGAELLRDPSLGAQFRVHLVKMVILTEPEGAPNITANLTSSLLSVCGWSQTINPEDDTDPGHADLVLYITRFDLELPDGNRQVRGVTQLGGACSPTWSCLITEDTGFDLGVTIAHEIGHSFGLEHDGAPGSGCGPSGHVMASDGAAPRAGLAWSPCSRRQLLSLLSAGRARCVWDPPRPQPGSAGHPPDAQPGLYYSANEQCRVAFGPKAVACTFAREHLDMCQALSCHTDPLDQSSCSRLLVPLLDGTECGVEKWCSKGRCRSLVELTPIAAVHGRWSSWGPRSPCSRSCGGGVVTRRRQCNNPRPAFGGRACVGADLQAEMCNTQACEKTQLEFMSQQCARTDGQPLRSSPGGASFYHWGAAVPHSQGDALCRHMCRAIGESFIMKRGDSFLDGTRCMPSGPREDGTLSLCVSGSCRTFGCDGRMDSQQVWDRCQVCGGDNSTCSPRKGSFTAGRAREYVTFLTVTPNLTSVYIANHRPLFTHLAVRIGGRYVVAGKMSISPNTTYPSLLEDGRVEYRVALTEDRLPRLEEIRIWGPLQEDADIQVYRRYGEEYGNLTRPDITFTYFQPKPRQAWVWAAVRGPCSVSCGAGLRWVNYSCLDQARKELVETVQCQGSQQPPAWPEACVLEPCPPYWAVGDFGPCSASCGGGLRERPVRCVEAQGSLLKTLPPARCRAGAQQPAVALETCNPQPCPARWEVSEPSSCTSAGGAGLALENETCVPGADGLEAPVTEGPGSVDEKLPAPEPCVGMSCPPGWGHLDATSAGEKAPSPWGSIRTGAQAAHVWTPAAGSCSVSCGRGLMELRFLCMDSALRVPVQEELCGLASKPGSRREVCQAVPCPARWQYKLAACSVSCGRGVVRRILYCARAHGEDDGEEILLDTQCQGLPRPEPQEACSLEPCPPRWKVMSLGPCSASCGLGTARRSVACVQLDQGQDVEVDEAACAALVRPEASVPCLIADCTYRWHVGTWMECSVSCGDGIQRRRDTCLGPQAQAPVPADFCQHLPKPVTVRGCWAGPCVGQGTPSLVPHEEAAAPGRTTATPAGASLEWSQARGLLFSPAPQPRRLLPGPQENSVQSSACGRQHLEPTGTIDMRGPGQADCAVAIGRPLGEVVTLRVLESSLNCSAGDMLLLWGRLTWRKMCRKLLDMTFSSKTNTLVVRQRCGRPGGGVLLRYGSQLAPETFYRECDMQLFGPWGEIVSPSLSPATSNAGGCRLFINVAPHARIAIHALATNMGAGTEGANASYILIRDTHSLRTTAFHGQQVLYWESESSQAEMEFSEGFLKAQASLRGQYWTLQSWVPEMQDPQSWKGKEGT
FRETS-rVWF71
  Km: Km of 1.8 µM
  kcat: kcat of 6.8 min^-1 at 30 °C

B2: recombinant ADAMTS13 MDTCS (protein)
chain: AAGGILHLELLVAVGPDVFQAHQEDTERYVLTNLNIGAELLRDPSLGAQFRVHLVKMVILTEPEGAPNITANLTSSLLSVCGWSQTINPEDDTDPGHADLVLYITRFDLELPDGNRQVRGVTQLGGACSPTWSCLITEDTGFDLGVTIAHEIGHSFGLEHDGAPGSGCGPSGHVMASDGAAPRAGLAWSPCSRRQLLSLLSAGRARCVWDPPRPQPGSAGHPPDAQPGLYYSANEQCRVAFGPKAVACTFAREHLDMCQALSCHTDPLDQSSCSRLLVPLLDGTECGVEKWCSKGRCRSLVELTPIAAVHGRWSSWGPRSPCSRSCGGGVVTRRRQCNNPRPAFGGRACVGADLQAEMCNTQACEKTQLEFMSQQCARTDGQPLRSSPGGASFYHWGAAVPHSQGDALCRHMCRAIGESFIMKRGDSFLDGTRCMPSGPREDGTLSLCVSGSCRTFGCDGRMDSQQVWDRCQVCGGDNSTCSPRKGSFTAGRAREYVTFLTVTPNLTSVYIANHRPLFTHLAVRIGGRYVVAGKMSISPNTTYPSLLEDGRVEYRVALTEDRLPRLEEIRIWGPLQEDADIQVYRRYGEEYGNLTRPDITFTYFQPKPRQA
FRETS-rVWF71
  cleavage of the substrate (fluorescence): cleaving FRETS-rVWF71 to completion with excess recombinant ADAMTS13 MDTCS

B3: FRETS-rVWF71 (peptide)
peptide: GQAPNLVYMVTGCPASDEIRRLPGDIQVVPIGVGPNANVQELERIGWPNAPILIQDFETLPREAPDLVLQR
modifications: Cys1610 modified with DyLight 633 (maleimide); N-terminal Gly modified with IRDye QC-1 (N-hydroxysuccinimidyl ester)
notes: Fluorogenic substrate; Recombinant peptide rVWF71 (extra N-terminal Gly = E1598G, N1610C, K1617R) labelled with fluorophore and quencher; also called VWF-rFRETS71; doubly-labeled substrate
Plasma ADAMTS13
  binding result: binds
